Measured values: the supplement of paper PMC10065799, “High-throughput profiling of sequence recognition by tyrosine kinases and SH2 domains using bacterial peptide display” (eLife, 2023)

System: AncSZ
Test: phosphorylation enrichment, bacterial display (enrichment ratio); higher = better substrate or ligand; peptides without Tyr show the background
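Also: 11-residue human phosphosite peptides and single-mutation variants displayed on the E. coli surface, counted by deep sequencing, each peptide's frequency after selection divided by its frequency in the unselected input library; frequency after pTyr selection over input frequency; kinase dosed for 20-30% of maximal phosphorylation in three min.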

Row | Sequence | phosphorylation enrichment
1 | RSAGKYDVYLI [MECP2_Y120] | 0.885
2 | AAALAYGLDKS [HSPA9_Y230] | 0.598
3 | SDQRRYSLIDP [CLIP2_Y972_R977P] | 0.683
4 | CHSDDYVHISI [TSC1_Y406_L411I] | 1.65
5 | LARNMYDKEFF [MET_Y1230_D1228N_YF] | 1.03
6 | SRFQFYFQQKG [CHKB_Y381] | 1.63
7 | AAVNGYAFGGG [ECHS1_Y137] | 0.495
8 | SEELHYYVQNH [UQCRC2_Y207_F208Y] | 2.04
9 | SVTCAYSPALN [TP53_Y126_T125A] | 1.26
10 | TLSGIYQYSIA [FOXL2_Y81_I84S] | 1.24
11 | CTTIHYNYKCN [TP53_Y234_M237K] | 0.754
12 | TDLAYYLVREG [ASL_Y376_K380E] | 1.54
13 | RGFRQDAFDGK [HLA-A_Y140_YF] | 0.575
14 | DSMQSYDLDYP [UNC13B_Y243] | 1.3
15 | GTYVIYVRFSG [FLNB_Y1687_G1691S] | 1.26
16 | VSTKVYKRFPS [BEST1_Y148_A146K] | 0.445
17 | KKHIPCREHKS [CSNK1G2_Y206_Y206C] | 1.76

Row | Sequence | phosphorylation enrichment
18 | QKFMAYLSQGW [HLCS_Y236_G241W] | 1.19
19 | HSYNSYTYPRL [PAK5_Y316] | 0.776
20 | YGSSSYGGAGG [RPA2_Y14] | 0.457
21 | DEDFLYREELA [POR_Y575_YF] | 1.17
22 | SEKIVYGHLDD [ACO2_Y71] | 0.829
23 | MPVDGYISGLL [PAK6_Y81] | 0.716
24 | REGAKYVSHCA [ASS1_Y113_G117C] | 0.776
25 | CDKEFYSVHNK [MET_Y1235_Y1230C_YF] | 0.732
26 | IFHLSYHHNCE [PDE6B_Y227_L228H_YF] | 1.15
27 | LPQDGYRIVQH [PTPRT_Y1329_R1324L] | 0.672
28 | LYYYSYLLKNH [PTEN_Y180_V175L] | 1.64
29 | YPSLPYSPVSS [CAMKK2_Y128_C123Y] | 0.663
30 | YDRREYSRFEK [ITGB7_Y758] | 0.902
31 | CGSLLYGLVHQ [PRKCG_Y122] | 0.889
32 | VECQVYAEDPY [PCCA_Y401_R399Q] | 1.51
33 | HRNNNYEPNLF [BRCA2_Y57_K53R] | 0.684

Target: EPHB1 (UniProt P54762)
Sequence (P54762 whole entry, looked up): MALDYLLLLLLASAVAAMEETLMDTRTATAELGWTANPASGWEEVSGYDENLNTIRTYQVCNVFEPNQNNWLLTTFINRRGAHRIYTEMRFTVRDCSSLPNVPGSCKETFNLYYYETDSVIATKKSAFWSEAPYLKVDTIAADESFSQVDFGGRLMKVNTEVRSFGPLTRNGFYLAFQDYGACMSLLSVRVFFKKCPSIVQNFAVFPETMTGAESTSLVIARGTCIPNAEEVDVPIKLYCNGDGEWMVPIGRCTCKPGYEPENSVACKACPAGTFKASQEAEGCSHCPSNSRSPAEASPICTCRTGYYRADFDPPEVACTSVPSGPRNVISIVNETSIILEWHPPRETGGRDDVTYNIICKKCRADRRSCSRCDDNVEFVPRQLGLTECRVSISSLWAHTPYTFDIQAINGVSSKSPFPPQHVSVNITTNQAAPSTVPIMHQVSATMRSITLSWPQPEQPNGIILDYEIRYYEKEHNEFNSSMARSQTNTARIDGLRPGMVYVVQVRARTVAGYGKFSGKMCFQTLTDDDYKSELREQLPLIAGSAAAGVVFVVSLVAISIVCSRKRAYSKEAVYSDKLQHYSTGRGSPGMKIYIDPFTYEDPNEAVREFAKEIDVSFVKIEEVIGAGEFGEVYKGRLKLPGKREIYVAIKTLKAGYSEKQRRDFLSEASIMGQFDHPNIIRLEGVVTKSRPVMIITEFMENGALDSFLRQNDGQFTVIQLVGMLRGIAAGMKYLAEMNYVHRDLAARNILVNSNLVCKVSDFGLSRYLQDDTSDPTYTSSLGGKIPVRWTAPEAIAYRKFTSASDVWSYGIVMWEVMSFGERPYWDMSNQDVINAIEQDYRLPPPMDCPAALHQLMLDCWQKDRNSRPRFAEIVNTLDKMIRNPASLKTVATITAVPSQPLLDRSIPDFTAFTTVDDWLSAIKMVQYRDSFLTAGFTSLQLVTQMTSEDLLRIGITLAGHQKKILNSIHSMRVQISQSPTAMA
Test: as above

Row | Sequence | phosphorylation enrichment
34 | RSAGKYDVYLI [MECP2_Y120] | 0.525
35 | AAALAYGLDKS [HSPA9_Y230] | 0.442
36 | SDQRRYSLIDP [CLIP2_Y972_R977P] | 0.56
37 | CHSDDYVHISI [TSC1_Y406_L411I] | 0.898
38 | LARNMYDKEFF [MET_Y1230_D1228N_YF] | 0.706
39 | SRFQFYFQQKG [CHKB_Y381] | 0.938
40 | AAVNGYAFGGG [ECHS1_Y137] | 0.347
41 | SEELHYYVQNH [UQCRC2_Y207_F208Y] | 0.89
42 | SVTCAYSPALN [TP53_Y126_T125A] | 0.726
43 | TLSGIYQYSIA [FOXL2_Y81_I84S] | 2.73
44 | CTTIHYNYKCN [TP53_Y234_M237K] | 0.433
45 | TDLAYYLVREG [ASL_Y376_K380E] | 0.578
46 | RGFRQDAFDGK [HLA-A_Y140_YF] | 0.454
47 | DSMQSYDLDYP [UNC13B_Y243] | 0.4
48 | GTYVIYVRFSG [FLNB_Y1687_G1691S] | 0.696
49 | VSTKVYKRFPS [BEST1_Y148_A146K] | 0.344
50 | KKHIPCREHKS [CSNK1G2_Y206_Y206C] | 1.6

Row | Sequence | phosphorylation enrichment
51 | QKFMAYLSQGW [HLCS_Y236_G241W] | 0.812
52 | HSYNSYTYPRL [PAK5_Y316] | 0.472
53 | YGSSSYGGAGG [RPA2_Y14] | 0.714
54 | DEDFLYREELA [POR_Y575_YF] | 0.506
55 | SEKIVYGHLDD [ACO2_Y71] | 0.499
56 | MPVDGYISGLL [PAK6_Y81] | 0.447
57 | REGAKYVSHCA [ASS1_Y113_G117C] | 0.618
58 | CDKEFYSVHNK [MET_Y1235_Y1230C_YF] | 0.461
59 | IFHLSYHHNCE [PDE6B_Y227_L228H_YF] | 0.567
60 | LPQDGYRIVQH [PTPRT_Y1329_R1324L] | 0.402
61 | LYYYSYLLKNH [PTEN_Y180_V175L] | 3.44
62 | YPSLPYSPVSS [CAMKK2_Y128_C123Y] | 0.436
63 | YDRREYSRFEK [ITGB7_Y758] | 0.486
64 | CGSLLYGLVHQ [PRKCG_Y122] | 2.22
65 | VECQVYAEDPY [PCCA_Y401_R399Q] | 0.828
66 | HRNNNYEPNLF [BRCA2_Y57_K53R] | 1.07

Target: EPHB2 (UniProt P29323)
Sequence (P29323 whole entry, looked up): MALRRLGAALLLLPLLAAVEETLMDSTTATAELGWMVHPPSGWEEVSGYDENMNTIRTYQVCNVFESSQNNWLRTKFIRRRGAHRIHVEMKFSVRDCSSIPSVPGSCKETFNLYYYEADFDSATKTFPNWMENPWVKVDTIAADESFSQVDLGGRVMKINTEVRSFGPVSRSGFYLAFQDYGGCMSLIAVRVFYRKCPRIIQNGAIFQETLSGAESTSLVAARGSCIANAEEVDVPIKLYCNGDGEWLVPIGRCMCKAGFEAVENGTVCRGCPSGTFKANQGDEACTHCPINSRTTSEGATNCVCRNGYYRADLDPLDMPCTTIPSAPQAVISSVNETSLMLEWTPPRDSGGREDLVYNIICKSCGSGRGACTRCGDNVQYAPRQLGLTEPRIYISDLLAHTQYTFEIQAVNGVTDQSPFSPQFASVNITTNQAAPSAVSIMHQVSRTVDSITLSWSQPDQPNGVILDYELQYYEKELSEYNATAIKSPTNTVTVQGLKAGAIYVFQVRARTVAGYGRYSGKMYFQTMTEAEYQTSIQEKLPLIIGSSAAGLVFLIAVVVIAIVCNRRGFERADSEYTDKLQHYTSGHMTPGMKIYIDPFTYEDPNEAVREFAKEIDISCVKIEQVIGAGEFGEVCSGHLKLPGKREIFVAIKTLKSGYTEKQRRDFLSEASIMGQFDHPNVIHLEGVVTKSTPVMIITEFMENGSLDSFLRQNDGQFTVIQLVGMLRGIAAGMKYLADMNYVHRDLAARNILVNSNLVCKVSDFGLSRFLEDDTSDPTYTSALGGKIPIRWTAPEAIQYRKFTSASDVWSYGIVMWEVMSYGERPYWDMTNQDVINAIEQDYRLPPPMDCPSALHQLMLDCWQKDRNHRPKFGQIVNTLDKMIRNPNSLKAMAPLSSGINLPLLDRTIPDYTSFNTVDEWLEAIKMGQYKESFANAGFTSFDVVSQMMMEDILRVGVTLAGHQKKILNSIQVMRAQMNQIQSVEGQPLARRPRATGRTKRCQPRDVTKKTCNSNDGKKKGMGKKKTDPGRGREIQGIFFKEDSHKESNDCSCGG
Test: as above

Row | Sequence | phosphorylation enrichment
67 | RSAGKYDVYLI [MECP2_Y120] | 0.77
68 | AAALAYGLDKS [HSPA9_Y230] | 0.4
69 | SDQRRYSLIDP [CLIP2_Y972_R977P] | 0.567
70 | CHSDDYVHISI [TSC1_Y406_L411I] | 0.67
71 | LARNMYDKEFF [MET_Y1230_D1228N_YF] | 0.592
72 | SRFQFYFQQKG [CHKB_Y381] | 0.612
73 | AAVNGYAFGGG [ECHS1_Y137] | 0.389
74 | SEELHYYVQNH [UQCRC2_Y207_F208Y] | 0.788
75 | SVTCAYSPALN [TP53_Y126_T125A] | 0.577
76 | TLSGIYQYSIA [FOXL2_Y81_I84S] | 1.98
77 | CTTIHYNYKCN [TP53_Y234_M237K] | 0.539
78 | TDLAYYLVREG [ASL_Y376_K380E] | 0.706
79 | RGFRQDAFDGK [HLA-A_Y140_YF] | 0.475
80 | DSMQSYDLDYP [UNC13B_Y243] | 0.552
81 | GTYVIYVRFSG [FLNB_Y1687_G1691S] | 0.543
82 | VSTKVYKRFPS [BEST1_Y148_A146K] | 0.348
83 | KKHIPCREHKS [CSNK1G2_Y206_Y206C] | 0.962

Row | Sequence | phosphorylation enrichment
84 | QKFMAYLSQGW [HLCS_Y236_G241W] | 1.05
85 | HSYNSYTYPRL [PAK5_Y316] | 0.508
86 | YGSSSYGGAGG [RPA2_Y14] | 0.305
87 | DEDFLYREELA [POR_Y575_YF] | 0.594
88 | SEKIVYGHLDD [ACO2_Y71] | 0.556
89 | MPVDGYISGLL [PAK6_Y81] | 0.59
90 | REGAKYVSHCA [ASS1_Y113_G117C] | 0.506
91 | CDKEFYSVHNK [MET_Y1235_Y1230C_YF] | 0.586
92 | IFHLSYHHNCE [PDE6B_Y227_L228H_YF] | 0.635
93 | LPQDGYRIVQH [PTPRT_Y1329_R1324L] | 0.423
94 | LYYYSYLLKNH [PTEN_Y180_V175L] | 1.65
95 | YPSLPYSPVSS [CAMKK2_Y128_C123Y] | 0.401
96 | YDRREYSRFEK [ITGB7_Y758] | 0.483
97 | CGSLLYGLVHQ [PRKCG_Y122] | 4.64
98 | VECQVYAEDPY [PCCA_Y401_R399Q] | 0.8
99 | HRNNNYEPNLF [BRCA2_Y57_K53R] | 0.858

Target: FGFR1 (UniProt P11362)
Sequence (P11362 whole entry, looked up): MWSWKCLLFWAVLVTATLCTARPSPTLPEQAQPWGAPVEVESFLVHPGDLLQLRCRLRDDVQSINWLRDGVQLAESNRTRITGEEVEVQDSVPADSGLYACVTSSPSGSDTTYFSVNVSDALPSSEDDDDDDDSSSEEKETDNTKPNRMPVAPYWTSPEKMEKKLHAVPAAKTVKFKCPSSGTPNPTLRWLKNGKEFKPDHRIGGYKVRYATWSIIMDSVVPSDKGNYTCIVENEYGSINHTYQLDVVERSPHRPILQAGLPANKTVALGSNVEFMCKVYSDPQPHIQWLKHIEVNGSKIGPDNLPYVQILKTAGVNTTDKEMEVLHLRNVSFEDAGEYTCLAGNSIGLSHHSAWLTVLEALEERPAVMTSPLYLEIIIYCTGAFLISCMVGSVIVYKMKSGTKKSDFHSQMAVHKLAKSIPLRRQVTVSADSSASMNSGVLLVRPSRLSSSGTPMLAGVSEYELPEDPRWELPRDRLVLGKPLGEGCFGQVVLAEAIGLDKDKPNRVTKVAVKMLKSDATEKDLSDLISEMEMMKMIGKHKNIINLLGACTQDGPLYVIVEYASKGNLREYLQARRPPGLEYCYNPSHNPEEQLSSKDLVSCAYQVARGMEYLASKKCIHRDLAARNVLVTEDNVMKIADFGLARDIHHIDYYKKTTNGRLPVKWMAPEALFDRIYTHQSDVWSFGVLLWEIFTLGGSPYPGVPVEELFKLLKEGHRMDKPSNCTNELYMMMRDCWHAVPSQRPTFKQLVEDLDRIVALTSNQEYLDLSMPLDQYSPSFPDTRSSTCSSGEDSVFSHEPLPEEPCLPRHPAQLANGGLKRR
Test: as above

Row | Sequence | phosphorylation enrichment
100 | RSAGKYDVYLI [MECP2_Y120] | 0.433
101 | AAALAYGLDKS [HSPA9_Y230] | 0.455
102 | SDQRRYSLIDP [CLIP2_Y972_R977P] | 0.533
103 | CHSDDYVHISI [TSC1_Y406_L411I] | 1.65
104 | LARNMYDKEFF [MET_Y1230_D1228N_YF] | 0.602
105 | SRFQFYFQQKG [CHKB_Y381] | 0.579
106 | AAVNGYAFGGG [ECHS1_Y137] | 0.435
107 | SEELHYYVQNH [UQCRC2_Y207_F208Y] | 3.68
108 | SVTCAYSPALN [TP53_Y126_T125A] | 0.557
109 | TLSGIYQYSIA [FOXL2_Y81_I84S] | 0.952
110 | CTTIHYNYKCN [TP53_Y234_M237K] | 0.526
111 | TDLAYYLVREG [ASL_Y376_K380E] | 9.61
112 | RGFRQDAFDGK [HLA-A_Y140_YF] | 0.488
113 | DSMQSYDLDYP [UNC13B_Y243] | 0.665
114 | GTYVIYVRFSG [FLNB_Y1687_G1691S] | 0.447
115 | VSTKVYKRFPS [BEST1_Y148_A146K] | 0.384
116 | KKHIPCREHKS [CSNK1G2_Y206_Y206C] | 1.13

Row | Sequence | phosphorylation enrichment
117 | QKFMAYLSQGW [HLCS_Y236_G241W] | 0.668
118 | HSYNSYTYPRL [PAK5_Y316] | 0.658
119 | YGSSSYGGAGG [RPA2_Y14] | 0.35
120 | DEDFLYREELA [POR_Y575_YF] | 0.536
121 | SEKIVYGHLDD [ACO2_Y71] | 0.432
122 | MPVDGYISGLL [PAK6_Y81] | 0.583
123 | REGAKYVSHCA [ASS1_Y113_G117C] | 0.643
124 | CDKEFYSVHNK [MET_Y1235_Y1230C_YF] | 0.441
125 | IFHLSYHHNCE [PDE6B_Y227_L228H_YF] | 0.499
126 | LPQDGYRIVQH [PTPRT_Y1329_R1324L] | 0.403
127 | LYYYSYLLKNH [PTEN_Y180_V175L] | 4.27
128 | YPSLPYSPVSS [CAMKK2_Y128_C123Y] | 0.873
129 | YDRREYSRFEK [ITGB7_Y758] | 0.459
130 | CGSLLYGLVHQ [PRKCG_Y122] | 0.545
131 | VECQVYAEDPY [PCCA_Y401_R399Q] | 0.575
132 | HRNNNYEPNLF [BRCA2_Y57_K53R] | 0.54
